Test results taken from patent publication US20210388087A1.
Positions count from the first letter of the chain named. In names and notes the source's numbering stands.

B1: H183/L072 VL V27cP (antibody, name in Kabat numbering, V domains shown)
VH: QVQLVESGGGLVQPGRSLRLSCAASGFTFSNAWMHWVRQAPGKGLEWVAQIKDKGNAYAAYYAPSVKGRFTISRDDSKNSIYLQMNSLKTEDTAVYYCHYVHYASASTVLPAFGVDAWGQGTTVTVSS
VL: DIVMTQSPLSLPVTPGEPASISCQASQELPHMNRNTYLHWYQQKPGQAPRLLIYKVSNRFPGVPDRFSGSGSGTDFTLKISRVEAEDVGVYYCAQGTSVPFTFGQGTKLEIK
B2: H183/L072 VL H27dR (antibody, name in Kabat numbering, V domains shown)
VH: B1 VH
VL: B1 VL with P30V, H31R
B3: H183/L072 VL N28R (antibody, name in Kabat numbering, V domains shown)
VH: B1 VH
VL: B1 VL with P30V, N33R
B4: H183/L072 VL L27bW (antibody, name in Kabat numbering, V domains shown)
VH: B1 VH
VL: B1 VL with L29W, P30V
B5: H183/L072 VL K50A (antibody, name in Kabat numbering, V domains shown)
VH: B1 VH
VL: B1 VL with P30V, K55A
B6: H183/L072 VL L33W (antibody, name in Kabat numbering, V domains shown)
VH: B1 VH
VL: B1 VL with P30V, L38W
B7: H183/L072 VL Q90A (antibody, name in Kabat numbering, V domains shown)
VH: B1 VH
VL: B1 VL with P30V, Q95A
B8: H183/L072 VL H27dP (antibody, name in Kabat numbering, V domains shown)
VH: B1 VH
VL: B1 VL with P30V, H31P
B9: H183/L072 VL T31Y (antibody, name in Kabat numbering, V domains shown)
VH: B1 VH
VL: B1 VL with P30V, T36Y
B10: H183/L072 VL N28F (antibody, name in Kabat numbering, V domains shown)
VH: B1 VH
VL: B1 VL with P30V, N33F
B11: H183/L072 VL T31P (antibody, name in Kabat numbering, V domains shown)
VH: B1 VH
VL: B1 VL with P30V, T36P
B12: H183/L072 VL H27dV (antibody, name in Kabat numbering, V domains shown)
VH: B1 VH
VL: B1 VL with P30V, H31V
B13: H183/L072 VL H34V (antibody, name in Kabat numbering, V domains shown)
VH: B1 VH
VL: B1 VL with P30V, H39V
B14: H183/L072 VL V27cG (antibody, name in Kabat numbering, V domains shown)
VH: B1 VH
VL: B1 VL with P30G
B15: H183/L072 VL L33P (antibody, name in Kabat numbering, V domains shown)
VH: B1 VH
VL: B1 VL with P30V, L38P
B16: H183/L072 VL G91A (antibody, name in Kabat numbering, V domains shown)
VH: B1 VH
VL: B1 VL with P30V, G96A
B17: H183/L072 VL R29P (antibody, name in Kabat numbering, V domains shown)
VH: B1 VH
VL: B1 VL with P30V, R34P
B18: H183/L072 VL N28Y (antibody, name in Kabat numbering, V domains shown)
VH: B1 VH
VL: B1 VL with P30V, N33Y
B19: H183/L072 VL N28W (antibody, name in Kabat numbering, V domains shown)
VH: B1 VH
VL: B1 VL with P30V, N33W
B20: H183/L072 VL H27dW (antibody, name in Kabat numbering, V domains shown)
VH: B1 VH
VL: B1 VL with P30V, H31W
B21: H183/L072 VL Y32F (antibody, name in Kabat numbering, V domains shown)
VH: B1 VH
VL: B1 VL with P30V, Y37F
B22: H183/L072 VL N30P (antibody, name in Kabat numbering, V domains shown)
VH: B1 VH
VL: B1 VL with P30V, N35P
B23: H183/L072 VL H27dY (antibody, name in Kabat numbering, V domains shown)
VH: B1 VH
VL: B1 VL with P30V, H31Y
B24: H183/L072 VL L33Y (antibody, name in Kabat numbering, V domains shown)
VH: B1 VH
VL: B1 VL with P30V, L38Y
B25: H183/L072 VL T31W (antibody, name in Kabat numbering, V domains shown)
VH: B1 VH
VL: B1 VL with P30V, T36W
B26: H183/L072 VL Y32W (antibody, name in Kabat numbering, V domains shown)
VH: B1 VH
VL: B1 VL with P30V, Y37W
B27: H183/L072 VL N28P (antibody, name in Kabat numbering, V domains shown)
VH: B1 VH
VL: B1 VL with P30V, N33P
B28: H183/L072 VL H34P (antibody, name in Kabat numbering, V domains shown)
VH: B1 VH
VL: B1 VL with P30V, H39P
B29: H183/L072 VL N28V (antibody, name in Kabat numbering, V domains shown)
VH: B1 VH
VL: B1 VL with P30V, N33V
B30: H183/L072 VL Y32P (antibody, name in Kabat numbering, V domains shown)
VH: B1 VH
VL: B1 VL with P30V, Y37P
B31: H183/L072 VL L27bG (antibody, name in Kabat numbering, V domains shown)
VH: B1 VH
VL: B1 VL with L29G, P30V
B32: H183/L072 VL T31F (antibody, name in Kabat numbering, V domains shown)
VH: B1 VH
VL: B1 VL with P30V, T36F
B33: H183/L072 VL Y32V (antibody, name in Kabat numbering, V domains shown)
VH: B1 VH
VL: B1 VL with P30V, Y37V

Molecular target: Human CD3eg linker (human)
Experiment: SPR; fold vs parent H183/L072

Sequence of Human CD3eg linker (human) (chain, as listed by the source limits assumed): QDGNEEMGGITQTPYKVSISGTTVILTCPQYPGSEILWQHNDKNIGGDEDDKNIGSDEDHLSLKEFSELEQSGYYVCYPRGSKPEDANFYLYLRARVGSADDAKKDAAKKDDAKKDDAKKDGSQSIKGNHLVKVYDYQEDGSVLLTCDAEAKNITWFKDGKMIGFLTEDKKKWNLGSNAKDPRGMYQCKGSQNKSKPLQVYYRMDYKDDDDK

Binder | fold change of affinity
B1 | 0 fold
B2 | 0 fold
B3 | 0 fold
B4 | 0 fold
B5 | 0 fold
B6 | 0 fold
B7 | 0 fold
B8 | 0 fold
B9 | 0 fold
B10 | 0 fold
B11 | 0 fold
B12 | 0 fold
B13 | 0 fold
B14 | 0 fold
B15 | 0 fold
B16 | 0 fold
B17 | 0 fold

Binder | fold change of affinity
B18 | 0 fold
B19 | 0 fold
B20 | 0 fold
B21 | 0 fold
B22 | 0 fold
B23 | 0 fold
B24 | 0 fold
B25 | 0 fold
B26 | 0 fold
B27 | 0 fold
B28 | 0 fold
B29 | 0 fold
B30 | 0 fold
B31 | 0 fold
B32 | 0 fold
B33 | 0 fold
